Assay results from US20240261333A1 (published 2024).
Each block holds one binder with its values, some of them ahead of it.

Experiments:
Experiment in all cases: co-IP with anti-FLAG, C-FLAG B3GNT2, mass spectrometry
[1] = molecular target: T1, S100A7 (human, UniProt P31151 2-101)
T1 construct: also called NP_002954.2
T1 sequence (looked up): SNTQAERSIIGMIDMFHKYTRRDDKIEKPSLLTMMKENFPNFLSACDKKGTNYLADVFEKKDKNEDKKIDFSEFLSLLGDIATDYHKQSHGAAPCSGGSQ
Procedure: (§1) Cells were plated in 10-cm cell culture dishes and grown to 60-80% confluency. For each condition, two biological replicates were harvested for co-IP. Cells were washed with PBS and 4 mL of lysis buffer (20 mM HEPES, 1% Triton X-100, 150 mM NaCl, 1 mM EDTA, and 10% glycerol) containing protease inhibitor cocktail was added. Cells were scraped and lysate was incubated at 4° C. under rotary agitation for 1 h. Lysate was centrifuged at 14,000×g for 10 min at 4° C. Supernatant was transferred to a new tube and an aliquot was taken as the input. […] For Western blots, 10 μg/mL Chicken Anti-FLAG (Aves labs ET-DY100) and IgY control (R&D Systems AB-101-C) antibodies were biotinylated (Thermo Fisher Scientific 90407) and added to the respective conditions. Lysates with antibodies were incubated at 4° C. under rotary agitation overnight. For each mL of lysate, 50 μL of Pierce Protein A/G Magnetic Beads (Mass spectrometry; Thermo Fisher Scientific 88803) or Pierce Streptavidin Magnetic Beads (Western blot; Thermo Fisher Scientific 88817) was washed twice with lysis buffer. Lysates with antibodies were added to the beads and incubated at 4° C. under rotary agitation for 4 h. Beads were washed with lysis buffer 3 times and resuspended in lysis buffer for storage.
(§2) Magnetic beads were resuspended in 100 mM Tris pH 7.8, reduced, alkylated and digested with trypsin at 37° ° C. overnight. This solution was subjected to solid phase extraction to concentrate the peptides and remove unwanted reagents followed by injection onto a Shimadzu HPLC with fraction collector. Eight fractions were collected and after concentration were injected on a Waters NanoAcquity HPLC equipped with a self-packed Aeris 3 μm C18 analytical column 0.075 mm by 20 cm, (Phenomenex). Peptides were eluted using standard reverse-phase gradients. The effluent from the column was analyzed using a Thermo Orbitrap Elite mass spectrometer (nanospray configuration) operated in a data dependent manner for 54 minutes. The resulting fragmentation spectra were correlated against the known database using Proteome Discover 1.4 (Thermo Fisher Scientific).

[2] = molecular target: T2, PKM (human, UniProt P14618 2-531, limits assumed)
T2 construct: also called NP_001193725.1 (+3)
T2 sequence (P14618 2-531 limits assumed): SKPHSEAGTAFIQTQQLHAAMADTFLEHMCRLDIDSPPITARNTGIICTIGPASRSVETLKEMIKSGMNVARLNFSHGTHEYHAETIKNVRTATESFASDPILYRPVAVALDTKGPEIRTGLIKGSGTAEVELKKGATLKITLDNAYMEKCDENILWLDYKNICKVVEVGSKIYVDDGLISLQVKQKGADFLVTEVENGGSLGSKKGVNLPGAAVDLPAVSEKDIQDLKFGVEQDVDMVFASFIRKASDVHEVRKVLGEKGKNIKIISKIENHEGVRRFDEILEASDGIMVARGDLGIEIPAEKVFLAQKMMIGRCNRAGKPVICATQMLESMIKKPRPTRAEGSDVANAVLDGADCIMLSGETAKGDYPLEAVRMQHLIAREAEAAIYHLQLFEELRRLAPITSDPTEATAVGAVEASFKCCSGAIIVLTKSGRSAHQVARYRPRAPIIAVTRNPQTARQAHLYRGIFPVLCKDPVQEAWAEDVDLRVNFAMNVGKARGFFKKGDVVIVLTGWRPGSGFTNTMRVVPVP
Procedure: as §1, §2

[3] = molecular target: RPL38 (human, UniProt P63173 1-70)
Procedure: as §1, §2

[4] = molecular target: T3, DDX3X (human, UniProt O00571 2-662)
T3 construct: also called NP_001180345.1 (+1)
T3 sequence (O00571 2-662 limits assumed): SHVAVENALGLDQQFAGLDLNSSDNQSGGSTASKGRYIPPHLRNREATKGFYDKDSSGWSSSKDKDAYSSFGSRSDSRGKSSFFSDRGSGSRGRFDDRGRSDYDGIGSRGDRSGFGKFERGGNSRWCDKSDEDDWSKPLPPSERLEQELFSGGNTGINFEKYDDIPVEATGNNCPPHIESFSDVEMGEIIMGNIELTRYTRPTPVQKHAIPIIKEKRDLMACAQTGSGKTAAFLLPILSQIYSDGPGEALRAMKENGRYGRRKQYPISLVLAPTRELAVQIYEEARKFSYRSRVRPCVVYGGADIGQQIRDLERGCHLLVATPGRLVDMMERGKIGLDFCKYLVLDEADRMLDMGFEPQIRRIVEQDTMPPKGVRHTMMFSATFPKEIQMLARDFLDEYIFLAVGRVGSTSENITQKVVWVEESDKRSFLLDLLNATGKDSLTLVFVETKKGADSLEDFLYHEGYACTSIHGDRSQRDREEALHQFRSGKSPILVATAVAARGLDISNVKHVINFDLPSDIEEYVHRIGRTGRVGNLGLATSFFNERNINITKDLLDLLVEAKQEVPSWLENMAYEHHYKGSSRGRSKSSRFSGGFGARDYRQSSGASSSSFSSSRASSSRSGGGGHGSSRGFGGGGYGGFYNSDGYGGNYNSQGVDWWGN
Procedure: as §1, §2

[5] = molecular target: T4, JUP (human, UniProt P14923 1-745)
T4 construct: also called NP_001339702.1
T4 sequence (looked up): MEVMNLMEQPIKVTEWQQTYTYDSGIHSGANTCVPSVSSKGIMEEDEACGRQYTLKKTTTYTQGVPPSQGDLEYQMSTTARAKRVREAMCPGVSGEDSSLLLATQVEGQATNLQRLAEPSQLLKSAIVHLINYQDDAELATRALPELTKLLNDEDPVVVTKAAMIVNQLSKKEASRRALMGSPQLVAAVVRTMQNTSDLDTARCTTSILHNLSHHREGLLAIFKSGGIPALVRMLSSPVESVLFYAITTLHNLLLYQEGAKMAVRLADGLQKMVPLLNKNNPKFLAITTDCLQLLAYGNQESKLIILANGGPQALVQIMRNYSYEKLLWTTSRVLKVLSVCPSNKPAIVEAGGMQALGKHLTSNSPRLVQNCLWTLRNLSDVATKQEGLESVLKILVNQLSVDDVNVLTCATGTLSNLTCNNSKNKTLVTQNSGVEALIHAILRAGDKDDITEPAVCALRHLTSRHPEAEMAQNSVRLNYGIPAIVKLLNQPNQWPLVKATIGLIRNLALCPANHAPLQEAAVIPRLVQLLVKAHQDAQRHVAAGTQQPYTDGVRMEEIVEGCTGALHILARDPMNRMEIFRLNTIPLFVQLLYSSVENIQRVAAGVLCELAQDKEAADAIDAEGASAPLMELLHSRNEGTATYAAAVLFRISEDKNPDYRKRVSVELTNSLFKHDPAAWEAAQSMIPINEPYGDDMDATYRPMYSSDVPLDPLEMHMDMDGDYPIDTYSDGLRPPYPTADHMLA
Procedure: as §1, §2

[6] = molecular target: RPL17 (human, UniProt P18621 2-184)
Procedure: as §1, §2

[7] = molecular target: T5, TGM1 (human, UniProt P22735 1-817, limits assumed)
T5 construct: also called NP_000350.1
T5 sequence (looked up): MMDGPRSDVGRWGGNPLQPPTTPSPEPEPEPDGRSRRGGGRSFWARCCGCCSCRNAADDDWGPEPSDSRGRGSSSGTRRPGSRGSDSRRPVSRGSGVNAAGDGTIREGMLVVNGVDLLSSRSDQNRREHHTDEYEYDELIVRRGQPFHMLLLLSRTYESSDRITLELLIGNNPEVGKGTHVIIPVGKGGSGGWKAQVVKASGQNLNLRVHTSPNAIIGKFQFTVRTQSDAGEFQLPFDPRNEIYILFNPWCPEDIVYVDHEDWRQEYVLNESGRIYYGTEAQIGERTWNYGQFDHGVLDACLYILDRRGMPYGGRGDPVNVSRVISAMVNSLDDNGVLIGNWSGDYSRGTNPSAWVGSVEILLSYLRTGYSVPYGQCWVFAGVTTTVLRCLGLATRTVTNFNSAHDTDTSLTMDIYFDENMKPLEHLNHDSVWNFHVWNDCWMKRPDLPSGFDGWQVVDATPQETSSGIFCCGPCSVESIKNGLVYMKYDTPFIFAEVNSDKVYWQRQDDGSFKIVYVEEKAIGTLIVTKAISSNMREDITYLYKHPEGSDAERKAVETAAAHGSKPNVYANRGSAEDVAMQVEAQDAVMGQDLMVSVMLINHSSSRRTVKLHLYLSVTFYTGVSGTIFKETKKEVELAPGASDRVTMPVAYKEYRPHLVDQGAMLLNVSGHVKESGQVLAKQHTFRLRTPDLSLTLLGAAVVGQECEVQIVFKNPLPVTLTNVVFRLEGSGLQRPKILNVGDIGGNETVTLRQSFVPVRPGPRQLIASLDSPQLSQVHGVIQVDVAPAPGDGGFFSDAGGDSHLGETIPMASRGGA
Procedure: as §1, §2

co-IP mass spectrometry count [1]: 5
co-IP mass spectrometry count [2]: 3
co-IP mass spectrometry count [3]: 8
B1: C-terminal FLAG tagged B3GNT2 (enzyme, human, UniProt Q9NY97 1-397, looked up)
chain: MSVGRRRIKLLGILMMANVFIYFIMEVSKSSSQEKNGKGEVIIPKEKFWKISTPPEAYWNREQEKLNRQYNPILSMLTNQTGEAGRLSNISHLNYCEPDLRVTSVVTGFNNLPDRFKDFLLYLRCRNYSLLIDQPDKCAKKPFLLLAIKSLTPHFARRQAIRESWGQESNAGNQTVVRVFLLGQTPPEDNHPDLSDMLKFESEKHQDILMWNYRDTFFNLSLKEVLFLRWVSTSCPDTEFVFKGDDDVFVNTHHILNYLNSLSKTKAKDLFIGDVIHNAGPHRDKKLKYYIPEVVYSGLYPPYAGGGGFLYSGHLALRLYHITDQVHLYPIDDVYTGMCLQKLGLVPEKHKGFRTFDIEEKNKNNICSYVDLMLVHSRKPQEMIDIWSQLQSAHLKC
notes: FLAG-tagged ORF overexpressed in cells; pulled down from lysate with mouse anti-FLAG; also called C-FLAG B3GNT2; C-term flag; not shown: C-terminal FLAG tag

B2: C-terminal FLAG tagged B3GNT2 (enzyme, human, UniProt Q9NY97 1-397, looked up)
chain: B1 chain
notes: FLAG-tagged ORF overexpressed in A375 cells; pulled down from the lysate with mouse anti-FLAG; also called C-FLAG B3GNT2; C-term flag; not shown: C-terminal FLAG tag
co-IP/MS count, C-term flag [4]: 23
co-IP/MS count, C-term flag [5]: 43
co-IP/MS count, C-term flag [6]: 0
co-IP/MS count, C-term flag [7]: 8
